Source: patent US20240368295A1 (SUTRO BIOPHARMA, published 2024)
Positions count from the first letter of the chain named.

T1: BCMA on BCMA-positive NCI-H929, ARP-1 and U266B1 cells (human, UniProt Q02223 1-184)
T1 sequence: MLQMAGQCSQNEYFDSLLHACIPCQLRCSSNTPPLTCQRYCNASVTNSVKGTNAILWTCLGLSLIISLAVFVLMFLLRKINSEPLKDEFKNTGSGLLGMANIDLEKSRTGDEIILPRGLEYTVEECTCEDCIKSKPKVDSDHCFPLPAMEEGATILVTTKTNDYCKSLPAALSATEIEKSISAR

B1: SRP2288-A03 (antibody, IgG1, V domains shown)
VH: EVQLVESGGGLVQPGGSLRLSCAASGFNINNSWIHWVRQAPGKGLEWVGWIYPYIGFTEYADSVKGRFTISADTSKNTAYLQMNSLRAEDTAVYYCARDYDLRYLTGVLDYWGQGTLVTVSS
VL: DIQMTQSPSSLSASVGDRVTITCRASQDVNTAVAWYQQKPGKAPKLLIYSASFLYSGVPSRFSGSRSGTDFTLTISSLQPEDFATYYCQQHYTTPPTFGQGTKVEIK
notes: IgG1 with trastuzumab light chain, His/FLAG-tagged, cell-free expressed; also called Antibody 15
B2: SRP2291-A04 (antibody, IgG1, V domains shown)
VH: EVQLVESGGGLVQPGGSLRLSCAASGFNISSYGIHWVRQAPGKGLEWVGFISPYDGYTEYADSVKGRFTISAGTSKNTAYLQMNSLRAEDTAVYYCARDFNDRYFTYVLDYWGQGTLVTVSS
VL: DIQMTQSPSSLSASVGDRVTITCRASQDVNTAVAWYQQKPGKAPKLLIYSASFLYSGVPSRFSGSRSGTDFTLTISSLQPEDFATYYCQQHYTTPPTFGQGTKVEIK
notes: IgG1 with trastuzumab light chain, His/FLAG-tagged, cell-free expressed; also called Antibody 28
B3: SRP2291-A01 (antibody, IgG1, V domains shown)
VH: B2 VH with S30D, S31P, G33T, V37A, G49A, F50H, E59D, G73D, N101Y, F105S
VL: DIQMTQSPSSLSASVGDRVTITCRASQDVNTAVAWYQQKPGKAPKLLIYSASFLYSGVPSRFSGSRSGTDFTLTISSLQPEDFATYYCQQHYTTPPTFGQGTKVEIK
notes: IgG1 with trastuzumab light chain, His/FLAG-tagged, cell-free expressed; also called Antibody 29
B4: SRP2291-G05 (antibody, IgG1, V domains shown)
VH: B2 VH with S30A, S31A, G33T, F50W, D55G, G73D, N101H, F105A, Y107F
VL: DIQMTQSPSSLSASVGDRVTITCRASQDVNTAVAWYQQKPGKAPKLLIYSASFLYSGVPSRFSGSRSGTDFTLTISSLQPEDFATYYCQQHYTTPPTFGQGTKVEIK
notes: IgG1 with trastuzumab light chain, His/FLAG-tagged, cell-free expressed; also called Antibody 24
B5: SRP2291-D07 (antibody, IgG1, V domains shown)
VH: B2 VH with S30K, S31D, Y32T, G33Y, F50V, G73D, R98H, N101Y, F105S
VL: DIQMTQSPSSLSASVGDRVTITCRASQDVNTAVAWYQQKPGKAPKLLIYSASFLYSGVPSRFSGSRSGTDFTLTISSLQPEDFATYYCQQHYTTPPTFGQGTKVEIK
notes: IgG1 with trastuzumab light chain, His/FLAG-tagged, cell-free expressed; also called Antibody 26
B6: SRP2291-F10 (antibody, IgG1, V domains shown)
VH: B2 VH with S30D, S31P, G33T, F50W, G73D, F100Y, N101Y, F105S, Q114R
VL: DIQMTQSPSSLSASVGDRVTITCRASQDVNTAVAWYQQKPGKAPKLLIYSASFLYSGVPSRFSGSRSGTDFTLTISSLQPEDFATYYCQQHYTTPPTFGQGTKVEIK
notes: IgG1 with trastuzumab light chain, His/FLAG-tagged, cell-free expressed; also called Antibody 27
B7: SRP2291-E06 (antibody, IgG1, V domains shown)
VH: EVQLVESGGGLVQPGGSLRLSCAASGFNISPYTIHWVRQAPGKGLEWVAHIFPSGGYTDYADSVKGRFTISADTSKNTAYLQMNSLRAEDTAVYYCARDFYDRYATYVLDYWGQGTLVTVSS
VL: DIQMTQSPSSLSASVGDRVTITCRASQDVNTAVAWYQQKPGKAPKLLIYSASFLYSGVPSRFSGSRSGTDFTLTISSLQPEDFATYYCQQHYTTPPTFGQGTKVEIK
notes: IgG1 with trastuzumab light chain, His/FLAG-tagged, cell-free expressed; also called Antibody 25
B8: SRP2290-A02 (antibody, IgG1, V domains shown)
VH: EVQLVESGGGLVQPGGSLRLSCAASGFNISTRWIHWVRQAPGKGLEWVGVITPSAGYTHYADSVKGRFTISAGTSKNTAYLQMNSLRAEDTAVYYCARDLGSRYWVGVFDYWGQGTLVTVSS
VL: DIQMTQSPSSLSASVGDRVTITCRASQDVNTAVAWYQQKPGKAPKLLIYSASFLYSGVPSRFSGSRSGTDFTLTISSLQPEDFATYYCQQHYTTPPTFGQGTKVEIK
notes: IgG1 with trastuzumab light chain, His/FLAG-tagged, cell-free expressed; also called Antibody 22
B9: SRP2290-G01 (antibody, IgG1, V domains shown)
VH: EVQLVESGGGLVQPGGSLRLSCAASGFNISPYWIHWVRQAPGKGLEWVGVITPPSGFTYYADSVKGRFTISADTSKNTAYLQVNSLRAEDTAVYYCARDLGVGYWVGFSDYWGQGTLVTVSS
VL: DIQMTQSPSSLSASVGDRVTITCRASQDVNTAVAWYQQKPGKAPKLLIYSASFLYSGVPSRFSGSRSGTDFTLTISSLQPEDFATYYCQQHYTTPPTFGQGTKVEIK
notes: IgG1 with trastuzumab light chain, His/FLAG-tagged, cell-free expressed; also called Antibody 17
B10: SRP2290-C08 (antibody, IgG1, V domains shown)
VH: B9 VH with S30Q, F57Y, V83M, L100W
VL: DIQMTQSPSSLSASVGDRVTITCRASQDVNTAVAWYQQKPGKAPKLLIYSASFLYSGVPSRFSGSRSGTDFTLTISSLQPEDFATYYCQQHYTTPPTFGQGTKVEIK
notes: IgG1 with trastuzumab light chain, His/FLAG-tagged, cell-free expressed; also called Antibody 21
B11: SRP2290-C07 (antibody, IgG1, V domains shown)
VH: B9 VH with S30T, P31Y, Y32D, P54F, S55D, F57Y, R67H, V83M, L100M
VL: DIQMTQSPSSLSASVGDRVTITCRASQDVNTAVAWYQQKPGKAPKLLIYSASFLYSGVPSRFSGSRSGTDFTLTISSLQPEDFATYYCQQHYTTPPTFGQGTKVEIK
notes: IgG1 with trastuzumab light chain, His/FLAG-tagged, cell-free expressed; also called Antibody 19
B12: SRP2290-D05 (antibody, IgG1, V domains shown)
VH: B9 VH with S30A, P31S, Y32R, P54S, S55A, F57Y, V83M, V102Y
VL: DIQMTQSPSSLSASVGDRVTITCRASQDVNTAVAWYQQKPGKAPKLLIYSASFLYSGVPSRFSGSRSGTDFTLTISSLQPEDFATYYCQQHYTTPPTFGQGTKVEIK
notes: IgG1 with trastuzumab light chain, His/FLAG-tagged, cell-free expressed; also called Antibody 20
B13: SRP2290-D02 (antibody, IgG1, V domains shown)
VH: B8 VH with T31S, R32Y, V48M, S54A, H59Y, G73D, S102H
VL: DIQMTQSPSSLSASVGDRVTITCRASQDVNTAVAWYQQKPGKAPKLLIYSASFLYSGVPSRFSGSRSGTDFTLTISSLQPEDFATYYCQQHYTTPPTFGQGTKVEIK
notes: IgG1 with trastuzumab light chain, His/FLAG-tagged, cell-free expressed; also called Antibody 18
B14: 9E12 (antibody, V domains shown)
VH: AVTLDESGGGLQTPGGGLSLVCKASGFTFSDYGLGWMRQAPGKGLEYVARINSAGSGTYYGSAVDGRATISRDNGQSTVRLQLNNLRAEDTGTYYCTRGGGGASIDGWGHGTEVIVSS
VL: ALTQPSSVSANPGETVKITCSGGGSYYGSYYYGWYQQKSPGSAPVTLIYNNNNRPSDIPSRFSGSTSGSTGTLTITGVRAEDEAVYYCGSFDSSTDAIFGAGTTLTVL
notes: chicken HybriFree-derived antibody; also called Antibody 43
B15: 9A5 (antibody, V domains shown)
VH: AVTLDESGGGLQTPGGAVSLVCKASGFSISDYGMGWMRQAPGKGLQYVARIDHDGRYTDYGAVVKGRATISRDNGQSTVRLQLNNLRAEDTGTYYCTRGGGAASIDTWGHGTEVIVSS
VL: B14 VL with S25N, Y27V, S29G, S39A, P44L, D57N, G71S, Y87F
notes: chicken HybriFree-derived antibody; also called Antibody 42
B16: 10E10 (antibody, V domains shown)
VH: AVTLDESGGGLQTPGGGLSLVCKASGFTFSSYGMGWMRQAPGKGLEFVARINSGGSSYTDYGSAVKGRATISRDDGQSTVRLQLNNLRAEDTGIYYCTRGGGGASIDGWGHGTEVIVSS
VL: B14 VL with S25N, Y27A, V45L, L47V, N51S, T66L, Y87F, S90G
notes: chicken HybriFree-derived antibody; also called Antibody 46
B17: 10H1 (antibody, V domains shown)
VH: B14 VH with G17A, D31G, L34M, G57D, Y59D, S62A, D65K, G92A, Y95F
VL: B14 VL with S25N, S39A, L47V, D57N, T66K, R79Q, Y87F, S90G, T95S
notes: chicken HybriFree-derived antibody; also called Antibody 45
B18: 9H1 (antibody, V domains shown)
VH: AVTLDESGGGLQTPGGALSLVCKGSGFTFSDYGMGWMRQAPGKGLQYVARINSAGSDTNYGSAVKGRATISRDDGQSTVRLQLSSLRAEDTGIYYCTRGGGGASIDGWGHGTEVIVSS
VL: B14 VL
notes: chicken HybriFree-derived antibody; also called Antibody 44

Molecular target: T1, BCMA on BCMA-positive NCI-H929, ARP-1 …
Test: cell-based or functional assay

Binder | U266B1, SC225-conjugated 2° antibody cell killing, EC50 [nM] | U266B1, SC225-conjugated 2° antibody cell killing, Span [%]
B1 | 2.3 | 42
B2 | 49 | 0.8
B3 | 58 | 1.1
B4 | 20 | 0.8
B5 | 16 | 2
B6 | 46 | 1
B7 | 27 | 1.1
B8 | 1.6 | 70
B9 | 1.4 | 70
B10 | 1.1 | 73
B11 | 0.93 | 75
B12 | 0.96 | 50
B13 | 1.4 | 60

Molecular target: T2, rat BCMA on 293T-ratBCMA cells (rat)
T2 construct: whole, on cells
Test: FACS, 293T-ratBCMA cells

Binder | Bmax (MFI)
B14 | 4690
B15 | 2780
B16 | 906
B17 | 4350
B18 | 3450

Molecular target: T1, BCMA on BCMA-positive NCI-H929, ARP-1 …
Test: FACS, NCI-H929 cells
Description: (§1) Variants for which sufficient protein was purified in secondary screening were tested in a fluorescence-activated cell sorting (FACS) cell-binding assay. […] 6-12 point dilutions of anti-BCMA variants starting from concentrations of about 100-200 nM antibody were dispensed into each well using a BioMekFX (Beckman Coulter). Cells were then incubated on ice for 1 hr, washed with FACS buffer and incubated for 1 hr on ice with […] FACS buffer containing […] Alexa647-conjugated Goat Anti-Human IgG dispensed using BioMekFX (Beckman Coulter). Cells were then washed 2× with FACS buffer and fixed for 10 minutes in […] PBS with 2% PFA prior to fluorescence detection. Samples were acquired using a Beckton Dickinson LSRII FACS. Geometric Mean Fluorescence Intensity of BCMA antibody binding was analyzed using FlowJo® software (Trec Star, Inc.).

Binder | Bmax (MFI)
B1 | 16300
B14 | 8140
B15 | 19700
B16 | 3440
B17 | 22500
B18 | 6160
B2 | 33900
B3 | 32500
B4 | 23200
B5 | 28700
B6 | 33800
B7 | 34400
B8 | 33600
B10 | 37800
B12 | 21800
B13 | 33600

Molecular target: T1, BCMA on BCMA-positive NCI-H929, ARP-1 …
Test: cell-based or functional assay
Remark: another data set of the same source

Binder | ARP-1, SC239-conjugated 2° antibody cell killing, EC50 [nM] | ARP-1, SC239-conjugated 2° antibody cell killing, Span [%] | U266B1, SC239-conjugated 2° antibody cell killing, EC50 [nM] | U266B1, SC239-conjugated 2° antibody cell killing, Span [%]
B14 | 1.2 | 80 | 1.4 | 47
B15 | 0.7 | 93 | 0.29 | 84
B16 | 3 | 46 | 2.5 | 20
B17 | 0.86 | 88 | 0.29 | 89
B18 | 1.3 | 74 | 1.1 | 50

Molecular target: cynomolgus BCMA on 293T-cynoBCMA cells (cynomolgus, UniProt Q02223 1-184 (human entry))
Test: FACS, 293T-cynoBCMA cells
Description: as §1

Sequence of cynomolgus BCMA on 293T-cynoBCMA cells (Q02223 other isoform, or with tags, fused parts or gaps): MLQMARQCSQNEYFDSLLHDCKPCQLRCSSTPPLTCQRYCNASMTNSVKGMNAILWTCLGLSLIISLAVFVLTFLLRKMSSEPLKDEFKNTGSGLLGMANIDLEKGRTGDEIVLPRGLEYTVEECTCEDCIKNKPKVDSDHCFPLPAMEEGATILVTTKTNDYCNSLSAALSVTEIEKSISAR

Binder | Bmax (MFI)
B1 | 46800
B14 | 13200
B15 | 18200
B16 | 4540
B17 | 21200
B18 | 11400
B2 | 63800
B3 | 67200
B4 | 62700
B5 | 67900
B6 | 66500
B7 | 68300
B8 | 70300
B9 | 77100
B10 | 71000
B11 | 78100
B12 | 57600
B13 | 75800
